In this experiment the target is Cyno Gal-3 (Macaca fascicularis). As to the kind of experiment: SPR; kinetic fit, which the text calls poor for the monkey sample; immobilised partner and concentrations not given.

B1: SIF001 (antibody, V domains shown)
VH: QVQLVQSGSELKKPGASVKVSCKASGYTFTNYGMNWVRQAPGQGLEWMGWINTYTGEPTYADDFKGRFVFSLDTSVSTAYLQISSLKNEDMAVYFCARYAMDYWGQGTLVTVSS
VL: EAVVTQEPSLTVSPGGTVTLTCRSSTGAVTTSNYANWVQQKPGQAFTGLIGGTSNRAPGTPARFSGSLLGDKAALTLLGAQPEDEAEYFCALWYSTHYVFGGGTKLTVL
Consider B1, for which the dissociation constant (Kd) stood at 64.1 nM.

For the origin of these results see patent US20260034233A1.
